Measurements: patent US20250145711A1 (Janssen / Centocor, published 2025)
Changes are numbered by the printed parent chain. In names and notes the source's numbering stands.

B1: CD3B2030 (scFv)
scFv: QVQLVQSGAEVKKPGSSVKVSCKASGYTFTRSTMHWVKQAPGQGLEWIGYINPSSAYTNYNQKFQGRVTLTADKSTSTAYMELSSLRSEDTAVYYCASPQVHYDYNGFPYWGQGTLVTVSSGGSEGKSSGSGSESKSTGGSEIVLTQSPATLSASPGERVTLSCSASSSVSYMNWYQQKPGQAPRRWIYDSSKLASGVPARFSGSGSGRDYTLTISSLEPEDFAVYYCQQWSRNPPTFGGGTKVEIK
B2: CD3B2051 (scFv)
scFv: B1 scFv with I48M, W187L
B3: CD3B2030 N106Q (scFv)
scFv: B1 scFv with N106Q
notes: also called CD3B2030 NtoQ
B4: CD3B2089 (scFv)
scFv: B1 scFv with K38R, I48M, N61A
B5: PSMB1045 (bispecific antibody, human IgG1, kappa, L234A L235A)
heavy: not shown
light: not shown
chain: SYELMQPPSVSVSPGQTARITCSGDALPKQYAYWYQQKPGQAPVLVIYKDSERPSGIPVRFSGSSSGTTVTLTITGVQAEDEADYYCQSADSSGTYVFGTGTKVTVLGGSEGKSSGSGSESKSTGGSQVQLVESGGGVVQPGRSLRLSCAASGFTFSSYNMNWVRQAPGKGLEWVAIIYYDGSNKYYADSVKGRFTISRDISKNTLYLQMNSLRAEDTAVYYCARERGRDYYGMDVWGQGTTVTVSSEPKSSDKTHTCPPCPAPEAAGGPSVFLFPPKPKDTLMISRTPEVTCVVVSVSHEDPEVKFNWYVDGVEVHNAKTKPREEQYNSTYRVVSVLTVLHQDWLNGKEYKCKVSNKALPAPIEKTISKAKGQPREPQVYVLPPSREEMTKNQVSLLCLVKGFYPSDIAVEWESNGQPENNYLTWPPVLDSDGSFFLYSKLTVDKSRWQQGNVFSCSVMHEALHNHYTQKSLSLSPG
notes: HC1 (ZWA): B23B62-Fab; LC2 is NA
B6: PSMB1049 (bispecific antibody, human IgG1, kappa, L234A L235A)
heavy: not shown
light: not shown
chain: QSVLTQPASVSGSPGQSITISCTGTSSDVGGYNYVSWYQQHPGKAPKLMIYEVSNRPSGVSNRFSGSKSGNTASLTISGLQAEDEADYYCSSYTSSYTYVFGTGTKLTVLGGSEGKSSGSGSESKSTGGSEVQLVESGGDLVQPGGSLRLSCAASGFTFNNYNMNWVRQAPGKGLEWVSHISTSSSNKYYADSVKGRFSISRDIAKNSMYLQMNSLRDEDTAVYYCARDGVGADYGDYYYYGMDVWGQGTTVTVSSEPKSSDKTHTCPPCPAPEAAGGPSVFLFPPKPKDTLMISRTPEVTCVVVSVSHEDPEVKFNWYVDGVEVHNAKTKPREEQYNSTYRVVSVLTVLHQDWLNGKEYKCKVSNKALPAPIEKTISKAKGQPREPQVYVLPPSREEMTKNQVSLLCLVKGFYPSDIAVEWESNGQPENNYLTWPPVLDSDGSFFLYSKLTVDKSRWQQGNVFSCSVMHEALHNHYTQKSLSLSPG
notes: as for B5
B7: BC3B102 (bispecific antibody, human IgG1, kappa, L234A L235A)
chain: QVQLVQSGAEVKKPGSSVKVSCKASGYTFTRSTMHWVKQAPGQGLEWIGYINPSSAYTNYNQKFQGRVTLTADKSTSTAYMELSSLRSEDTAVYYCASPQVHYDYNGFPYWGQGTLVTVSSGGSEGKSSGSGSESKSTGGSEIVLTQSPATLSASPGERVTLSCSASSSVSYMNWYQQKPGQAPRRWIYDSSKLASGVPARFSGSGSGRDYTLTISSLEPEDFAVYYCQQWSRNPPTFGGGTKVEIKEPKSSDKTHTCPPCPAPEAAGGPSVFLFPPKPKDTLMISRTPEVTCVVVSVSHEDPEVKFNWYVDGVEVHNAKTKPREEQYNSTYRVVSVLTVLHQDWLNGKEYKCKVSNKALPAPIEKTISKAKGQPREPQVYVYPPSREEMTKNQVSLTCLVKGFYPSDIAVEWESNGQPENNYKTTPPVLDSDGSFALVSKLTVDKSRWQQGNVFSCSVMHEALHNHYTQKSLSLSPG
heavy: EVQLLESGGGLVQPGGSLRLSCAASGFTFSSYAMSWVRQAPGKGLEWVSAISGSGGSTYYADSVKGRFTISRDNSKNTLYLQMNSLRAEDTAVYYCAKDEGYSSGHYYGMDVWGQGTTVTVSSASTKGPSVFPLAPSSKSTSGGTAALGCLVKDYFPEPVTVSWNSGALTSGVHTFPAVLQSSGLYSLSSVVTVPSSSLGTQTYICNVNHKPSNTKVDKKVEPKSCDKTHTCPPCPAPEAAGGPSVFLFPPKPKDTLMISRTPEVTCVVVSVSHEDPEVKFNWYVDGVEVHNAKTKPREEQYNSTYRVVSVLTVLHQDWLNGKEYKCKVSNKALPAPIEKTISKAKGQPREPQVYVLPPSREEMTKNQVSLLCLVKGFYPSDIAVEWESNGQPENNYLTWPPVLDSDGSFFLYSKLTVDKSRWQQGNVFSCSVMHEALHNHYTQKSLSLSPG
light: EIVLTQSPGTLSLSPGERATLSCRASQSISSSFLTWYQQKPGQAPRLLIYGASSRATGIPDRFSGGGSGTDFTLTISRLEPEDFAVYYCQHYGSSPMYTFGQGTKLEIKRTVAAPSVFIFPPSDEQLKSGTASVVCLLNNFYPREAKVQWKVDNALQSGNSQESVTEQDSKDSTYSLSSTLTLSKADYEKHKVYACEVTHQGLSSPVTKSFNRGEC
notes: IgG1 BCMAxCD3; HC1: CD3B2030 HL scFv-Fc; also called BC3B102.001; B2030 HL
B8: BC3B116 (bispecific antibody, human IgG1, kappa, L234A L235A)
chain: EIVLTQSPATLSASPGERVTLSCSASSSVSYMNWYQQKPGQAPRRWIYDSSKLASGVPARFSGSGSGRDYTLTISSLEPEDFAVYYCQQWSRNPPTFGGGTKVEIKGGSEGKSSGSGSESKSTGGSQVQLVQSGAEVKKPGSSVKVSCKASGYTFTRSTMHWVKQAPGQGLEWIGYINPSSAYTNYNQKFQGRVTLTADKSTSTAYMELSSLRSEDTAVYYCASPQVHYDYNGFPYWGQGTLVTVSSEPKSSDKTHTCPPCPAPEAAGGPSVFLFPPKPKDTLMISRTPEVTCVVVSVSHEDPEVKFNWYVDGVEVHNAKTKPREEQYNSTYRVVSVLTVLHQDWLNGKEYKCKVSNKALPAPIEKTISKAKGQPREPQVYVYPPSREEMTKNQVSLTCLVKGFYPSDIAVEWESNGQPENNYKTTPPVLDSDGSFALVSKLTVDKSRWQQGNVFSCSVMHEALHNHYTQKSLSLSPG
heavy: not shown
light: B7 light
notes: IgG1 BCMAxCD3; HC1: CD3B2030 LH scFv-Fc; also called BC3B116.001; B2030 LH
B9: BC3B120 (bispecific antibody, human IgG1, kappa, L234A L235A)
chain: B8 chain with W46L, I174M
heavy: not shown
light: B7 light
notes: IgG1 BCMAxCD3; HC1: CD3B2051 LH scFv-Fc; also called BC3B120.001; B2051 LH
B10: BC3B124 (bispecific antibody, human IgG1, kappa, L234A L235A)
chain: B8 chain with W46L, I174M, N232S
heavy: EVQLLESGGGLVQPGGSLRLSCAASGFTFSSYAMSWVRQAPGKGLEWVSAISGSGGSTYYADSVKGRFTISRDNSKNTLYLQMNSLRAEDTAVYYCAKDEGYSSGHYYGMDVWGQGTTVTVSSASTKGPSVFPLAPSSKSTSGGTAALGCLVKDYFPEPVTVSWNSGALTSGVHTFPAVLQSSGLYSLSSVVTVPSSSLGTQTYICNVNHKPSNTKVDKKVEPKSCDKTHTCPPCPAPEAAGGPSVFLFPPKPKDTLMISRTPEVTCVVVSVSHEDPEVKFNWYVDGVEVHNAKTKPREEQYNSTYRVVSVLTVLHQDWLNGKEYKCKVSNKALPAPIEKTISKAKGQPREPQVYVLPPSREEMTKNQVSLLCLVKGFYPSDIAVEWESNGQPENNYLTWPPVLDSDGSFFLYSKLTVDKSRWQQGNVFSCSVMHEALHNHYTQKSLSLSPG
light: B7 light
notes: IgG1 BCMAxCD3; HC1: CD3B2051-N106S LH scFv-Fc; also called BC3B124.001; B2051 LH NtoS
B11: BC3B125 (bispecific antibody, human IgG1, kappa, L234A L235A)
chain: B8 chain with K164R, I174M, N187A
heavy: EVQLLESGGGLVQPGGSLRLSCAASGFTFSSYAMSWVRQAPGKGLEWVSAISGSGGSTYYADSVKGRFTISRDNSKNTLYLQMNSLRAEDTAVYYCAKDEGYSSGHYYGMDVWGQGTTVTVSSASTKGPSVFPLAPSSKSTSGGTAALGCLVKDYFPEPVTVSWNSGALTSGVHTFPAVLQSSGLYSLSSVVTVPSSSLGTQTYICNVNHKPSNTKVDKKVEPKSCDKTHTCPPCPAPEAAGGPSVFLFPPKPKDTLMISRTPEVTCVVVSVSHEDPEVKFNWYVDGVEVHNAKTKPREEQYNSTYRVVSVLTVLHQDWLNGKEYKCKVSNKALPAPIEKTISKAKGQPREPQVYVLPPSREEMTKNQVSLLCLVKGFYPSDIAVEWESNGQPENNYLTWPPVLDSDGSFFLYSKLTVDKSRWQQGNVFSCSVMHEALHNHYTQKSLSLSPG
light: B7 light
notes: IgG1 BCMAxCD3; HC1: CD3B2089 LH scFv-Fc; also called BC3B125.001; B2089 LH
B12: BC3B112 (bispecific antibody, human IgG1, kappa, L234A L235A)
chain: B7 chain with K38R, I48M, N61A, N106A
heavy: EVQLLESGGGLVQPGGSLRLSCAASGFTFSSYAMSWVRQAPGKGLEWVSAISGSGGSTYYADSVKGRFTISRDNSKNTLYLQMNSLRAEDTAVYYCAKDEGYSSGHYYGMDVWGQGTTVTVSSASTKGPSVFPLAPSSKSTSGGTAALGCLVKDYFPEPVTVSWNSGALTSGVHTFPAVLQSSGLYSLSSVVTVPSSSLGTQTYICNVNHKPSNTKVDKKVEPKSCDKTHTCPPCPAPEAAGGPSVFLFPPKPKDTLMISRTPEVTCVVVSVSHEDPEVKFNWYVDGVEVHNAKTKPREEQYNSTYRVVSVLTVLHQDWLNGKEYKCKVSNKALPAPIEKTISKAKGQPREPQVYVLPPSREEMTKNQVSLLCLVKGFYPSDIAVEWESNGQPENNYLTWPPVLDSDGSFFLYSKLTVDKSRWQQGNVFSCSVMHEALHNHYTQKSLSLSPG
light: B7 light
notes: IgG1 BCMAxCD3; HC1: CD3B2089-N106A HL scFv-Fc; also called BC3B112.001; B2089 HL NtoA
B13: BC3B106 (bispecific antibody, human IgG1, kappa, L234A L235A)
chain: B7 chain with I48M, W187L
heavy: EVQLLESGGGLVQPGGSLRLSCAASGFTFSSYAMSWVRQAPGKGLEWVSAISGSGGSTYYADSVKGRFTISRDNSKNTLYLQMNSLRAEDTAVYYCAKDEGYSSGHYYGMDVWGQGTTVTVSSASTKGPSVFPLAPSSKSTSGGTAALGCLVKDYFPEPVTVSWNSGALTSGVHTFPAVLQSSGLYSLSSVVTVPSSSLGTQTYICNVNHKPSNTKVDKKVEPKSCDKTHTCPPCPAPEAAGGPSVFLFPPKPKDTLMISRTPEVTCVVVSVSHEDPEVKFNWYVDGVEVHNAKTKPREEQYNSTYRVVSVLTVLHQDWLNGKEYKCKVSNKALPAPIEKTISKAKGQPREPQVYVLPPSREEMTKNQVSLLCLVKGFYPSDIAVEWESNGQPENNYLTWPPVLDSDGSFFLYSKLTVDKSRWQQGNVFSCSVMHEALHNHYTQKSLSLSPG
light: B7 light
notes: IgG1 BCMAxCD3; HC1: CD3B2051 HL scFv-Fc; also called BC3B106.001; B2051 HL
B14: BC3B111 (bispecific antibody, human IgG1, kappa, L234A L235A)
chain: B7 chain with K38R, I48M, N61A
heavy: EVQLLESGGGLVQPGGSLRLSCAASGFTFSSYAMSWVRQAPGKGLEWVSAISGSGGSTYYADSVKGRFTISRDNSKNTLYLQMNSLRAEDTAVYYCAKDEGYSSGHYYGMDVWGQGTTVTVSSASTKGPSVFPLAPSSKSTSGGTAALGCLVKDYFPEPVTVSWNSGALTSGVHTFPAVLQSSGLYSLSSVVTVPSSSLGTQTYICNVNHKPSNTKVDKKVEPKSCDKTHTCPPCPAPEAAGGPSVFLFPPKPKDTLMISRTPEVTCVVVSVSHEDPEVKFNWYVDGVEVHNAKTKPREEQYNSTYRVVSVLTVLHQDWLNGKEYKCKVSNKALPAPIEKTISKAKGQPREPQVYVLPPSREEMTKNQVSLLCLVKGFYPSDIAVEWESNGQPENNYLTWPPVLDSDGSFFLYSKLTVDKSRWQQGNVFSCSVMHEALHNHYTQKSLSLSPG
light: B7 light
notes: IgG1 BCMAxCD3; HC1: CD3B2089 HL scFv-Fc; also called BC3B111.001; B2089 HL

Target: T1, TRCW5 antigen (CD3δε-Fc-Avi) (biotinylated (site not stated))
T1 construct: also called recombinant CD3
Assay: ELISA after heat

T1 sequence (chain, as listed by the source mutant limits assumed): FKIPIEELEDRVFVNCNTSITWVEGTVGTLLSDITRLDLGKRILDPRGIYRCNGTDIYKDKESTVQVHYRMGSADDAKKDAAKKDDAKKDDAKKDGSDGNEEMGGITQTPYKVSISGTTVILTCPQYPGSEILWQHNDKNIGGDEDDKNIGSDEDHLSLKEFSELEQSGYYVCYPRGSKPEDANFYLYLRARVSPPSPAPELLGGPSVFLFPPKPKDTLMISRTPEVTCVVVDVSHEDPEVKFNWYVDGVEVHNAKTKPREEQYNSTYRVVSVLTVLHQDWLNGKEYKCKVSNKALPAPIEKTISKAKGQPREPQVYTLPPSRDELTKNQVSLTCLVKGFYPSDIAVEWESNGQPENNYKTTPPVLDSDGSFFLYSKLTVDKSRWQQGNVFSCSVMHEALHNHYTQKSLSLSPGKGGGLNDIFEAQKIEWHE

Binder	% Retained 55° C.	% Retained 60° C.	% Retained 65° C.
B1	106%	101%	36%
B2	109%	94%	32%
B3	111%	105%	55%
B4	111%	108%	41%

Target: T1, TRCW5 antigen (CD3δε-Fc-Avi)
Assay: ELISA

Binder	EC50
B1	8.84 nM
B2	8.73 nM
B3	10 nM
B4	8.79 nM

Target: T1, TRCW5 antigen (CD3δε-Fc-Avi)
Assay: binding after heat

Binder	% Retained 55° C.	% Retained 60° C.	% Retained 65° C.
B1	104%	102%	41.3%
B2	104%	95%	10.9%
B3	110%	97.5%	72.3%
B4	104%	109%	15.1%

Target: T2, CD3 on primary human pan T cells (human, UniProt P07766 23-207)
T2 construct: on cells it stands in the TCR/CD3 complex; also called Pan T-cells (CD3-positive); endogenous CD3
Assay: flow cytometry, pan T-cells

T2 sequence (P07766 23-207 limits assumed): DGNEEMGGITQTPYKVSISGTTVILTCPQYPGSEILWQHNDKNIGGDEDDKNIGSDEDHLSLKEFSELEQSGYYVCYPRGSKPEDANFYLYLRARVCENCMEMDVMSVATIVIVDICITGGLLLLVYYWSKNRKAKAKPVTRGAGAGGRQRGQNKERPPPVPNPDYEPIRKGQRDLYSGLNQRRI

Binder	% Binding retained on T-cells, 55° C.	% Binding retained on T-cells, 60° C.	% Binding retained on T-cells, 65° C.	% Binding retained on T-cells, RT
B1	1.05 fraction	1.1 fraction	0.757 fraction	1 fraction
B4	1.08 fraction	0.494 fraction	0.111 fraction	1 fraction

Target: T3, human PSMA on prostate cancer cell lines (22RV1, C4-2B) (human, UniProt Q04609 1-750)
T3 construct: also called PSMA-expressing cell lines
Assay: flow cytometry on C4-2B cells, four-parameter fit
Procedure: Molecule concentrations ranged from 500-0 nM over 12-points at 3-fold dilution. […] Values reported in the Table 69 were generated by fitting the data to a four-parameter function for ligand binding generating values for y-min, y-max, EC50, and Hill. EC90 were calculated using the equation EC90=[…]\hat{ }(1/Hill)*EC50.

T3 sequence (Q04609 whole entry): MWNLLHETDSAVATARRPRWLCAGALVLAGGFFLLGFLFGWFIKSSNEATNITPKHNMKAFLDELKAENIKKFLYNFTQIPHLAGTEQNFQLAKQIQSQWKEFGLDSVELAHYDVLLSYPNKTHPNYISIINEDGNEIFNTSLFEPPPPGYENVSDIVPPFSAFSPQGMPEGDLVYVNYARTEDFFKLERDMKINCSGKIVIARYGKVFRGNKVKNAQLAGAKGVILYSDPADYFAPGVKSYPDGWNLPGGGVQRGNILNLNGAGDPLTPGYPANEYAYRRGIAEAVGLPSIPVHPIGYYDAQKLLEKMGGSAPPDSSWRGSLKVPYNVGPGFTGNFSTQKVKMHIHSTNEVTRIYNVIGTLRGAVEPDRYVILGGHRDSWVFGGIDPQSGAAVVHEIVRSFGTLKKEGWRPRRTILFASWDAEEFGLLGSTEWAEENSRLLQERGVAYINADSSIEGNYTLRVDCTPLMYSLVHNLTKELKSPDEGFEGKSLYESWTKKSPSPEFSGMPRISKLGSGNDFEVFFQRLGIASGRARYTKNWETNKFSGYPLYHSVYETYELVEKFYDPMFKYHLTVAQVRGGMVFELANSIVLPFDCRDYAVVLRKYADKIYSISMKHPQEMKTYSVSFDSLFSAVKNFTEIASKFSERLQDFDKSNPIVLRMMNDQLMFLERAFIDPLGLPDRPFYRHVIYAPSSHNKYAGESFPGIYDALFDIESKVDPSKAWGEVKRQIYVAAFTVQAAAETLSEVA

Binder	EC50	EC90	Y-max	Y-min
B5	7 nM	248 nM	1.8e+06	53000
B6	5 nM	40 nM	1.5e+06	84000

Target: T4, recombinant human PSMA (human, UniProt Q04609 44-750)
T4 construct: also called hu PSMA; prostate-specific membrane antigen
Assay: SPR (Biacore 8K), antibody captured on anti-Fc, PSMA in solution
Procedure: The antibodies were captured on a goat anti-Fc antibody-modified C1 chip and titrated with 3-fold serial dilutions of PSMA antigen spanning concentrations of 1 nM to 100 nM human PSMA. The association and dissociation were monitored for 3 and 30 minutes, respectively, using a flow rate of 50 μL/min. Raw binding data was referenced by subtracting the analyte binding signals from blanks and analyzed using a 1:1 Langmuir binding model by the Biacore Insight evaluation software to obtain the kinetics which were used to calculate the binding affinity. The anti-PSMA were captured using an anti-human Fc antibody and the antigens were injected in solution.

T4 sequence (Q04609 44-750 limits assumed): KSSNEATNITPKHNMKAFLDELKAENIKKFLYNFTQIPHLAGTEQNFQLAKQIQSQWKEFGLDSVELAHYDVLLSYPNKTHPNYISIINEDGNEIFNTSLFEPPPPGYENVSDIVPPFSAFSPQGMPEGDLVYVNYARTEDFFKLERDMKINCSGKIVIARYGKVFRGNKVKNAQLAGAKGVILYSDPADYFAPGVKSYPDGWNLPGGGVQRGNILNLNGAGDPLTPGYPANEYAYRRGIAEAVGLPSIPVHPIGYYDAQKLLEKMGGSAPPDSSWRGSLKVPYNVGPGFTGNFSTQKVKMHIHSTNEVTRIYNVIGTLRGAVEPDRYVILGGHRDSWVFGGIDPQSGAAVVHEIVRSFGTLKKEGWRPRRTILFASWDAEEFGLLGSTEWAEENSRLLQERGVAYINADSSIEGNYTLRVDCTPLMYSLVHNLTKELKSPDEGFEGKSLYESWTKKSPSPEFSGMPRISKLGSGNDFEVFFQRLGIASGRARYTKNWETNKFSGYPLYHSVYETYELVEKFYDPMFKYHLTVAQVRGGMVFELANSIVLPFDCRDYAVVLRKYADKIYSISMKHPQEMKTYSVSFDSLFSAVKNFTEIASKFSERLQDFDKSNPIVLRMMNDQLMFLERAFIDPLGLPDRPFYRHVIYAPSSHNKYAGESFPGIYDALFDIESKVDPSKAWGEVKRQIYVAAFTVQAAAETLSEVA

Binder	Kd	koff	kon
B5	0.333 nM	6.98e-05 s⁻¹	209000 M⁻¹ s⁻¹
B6	0.657 nM	7.02e-05 s⁻¹	107000 M⁻¹ s⁻¹

Target: T5, Human CD3 epsilon (CD3ε), on primary human pan T cells (human, UniProt P07766 23-207)
T5 construct: Endogenous CD3 in the TCR complex on T cells; also called T-cell surface glycoprotein CD3 epsilon chain; T3E
Assay: flow cytometry on human T cells, anti-human IgG Fc A647 detection
Procedure: The bsAbs were assayed for their abilities bind T cells and to induce T-cell mediated cytotoxicity against H929 cells (ATCC@CRL-9068™). […] Stain buffer with no antibody was added to bottom 4 wells and assign as background control (secondary antibody alone). Parental Cris7b, CD3B695 (bivalent mAb controls) and CD3B375 (bsAb which was monovalent for Cris-7b) were added also with full dose-response curves.
Frozen T-cells were thawed in a 37° C. water bath and transferred gently into conical tube containing warm 5 mL media (RPMI+10% FBS)/1 vial of 1×10⁶ cells. Cells were mixed and centrifuged for 5 minutes at 400×g followed by resuspension in flow staining buffer, and counted and viability checked. Cells were then plated in 50 uL/50,000 cells/well into assay plates. Assay positive control mAb was added in the first column in quadruplicates at 2× at 20 nM in the bottom 4 wells. Stain buffer with no mAb was added to the top 4 wells and assigned as background controls (secondary antibody alone). Serially diluted antibody samples were added at 50 uL/well using Intergra Viaflo according to the attached plate maps and incubated for 1 hr at 37° C. After one hour incubation, 150 uL staining buffer were added to all wells, and cells were spun at 500×g for 5 minutes to pellet cells. Cells were then washed prior to addition of Alexa Fluor 647 (A647) conjugated anti human IgG Fc specific secondary detection antibody at 2 ug/mL in staining buffer. Secondary detection antibody was added at 50 uL/well to the washed cells. Plates were covered with foil and incubated for 30 minutes on ice or in the fridge. 150 uL staining buffer were added to all wells, and cells were spun at 500×g for 5 min to pellet cells. Cells were resuspended in 20 uL running buffer containing 1:1000 dilution of SYTOX™ green dead cell stain and run plates on iQue® Screener flow cytometer (Essen BioScience, Inc.). Briefly, cells were gated on FCS vs. SCS dot plot to eliminate debris. Singlets were gated on SCS-A vs SCS-H dot plot and from singlet population, live cells gated choosing BL1 channel for low/negative with SYTOX™ green viability stain (Thermo Fisher).

T5 sequence (P07766 23-207 limits assumed): as the sequence (P07766 23-207 limits assumed) above

Binder	EC50
B7	3 nM
B8	21.8 nM
B9	100 nM
B10	300 nM
B11	36.9 nM
B12	≥ 300 nM
B13	6.8 nM
B14	6.4 nM
